Earlier results on 1 substance are cited in PMC2647589.

The target in this data set is MeTRH (UniProt P20396).
Sequence of UniProt P20396 (P20396 whole entry, looked up): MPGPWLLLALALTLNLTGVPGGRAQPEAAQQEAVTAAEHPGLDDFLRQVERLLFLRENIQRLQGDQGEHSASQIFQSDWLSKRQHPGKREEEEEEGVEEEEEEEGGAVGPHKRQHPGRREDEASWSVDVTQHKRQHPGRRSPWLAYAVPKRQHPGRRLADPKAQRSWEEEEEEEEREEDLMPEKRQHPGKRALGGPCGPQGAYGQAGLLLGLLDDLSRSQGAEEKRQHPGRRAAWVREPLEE

Regarding TRH receptor (from UniProt P21761), the Kd is 2 nM.
